Consider one molecule from paper PMC3982999.

The target of this experiment is GST-tetra-ubiquitin (4×UB) (UniProt P0CG48). Nature of the experiment: LUMIER.

B1: Renilla luciferase fused to the full-length WT spartin (natural protein)
chain: MEQEPQNGEPAEIKIIREAYKKAFLFVNKGLNTDELGQKEEAKNYYKQGIGHLLRGISISSKESEHTGPGWESARQMQQKMKETLQNVRTRLEILEKGLATSLQNDLQEVPKLYPEFPPKDMCEKLPEPQSFSSAPQHAEVNGNTSTPSAGAVAAPASLSLPSQSCPAEAPPAYTPQAAEGHYTVSYGTDSGEFSSVGEEFYRNHSQPPPLETLGLDADELILIPNGVQIFFVNPAGEVSAPSYPGYLRIVRFLDNSLDTVLNRPPGFLQVCDWLYPLVPDRSPVLKCTAGAYMFPDTMLQAAGCFVGVVLSSELPEDDRELFEDLLRQMSDLRLQANWNRAEEENEFQIPGRTRPSSDQLKEASGTDVKQLDQGNKDVRHKGKRGKRAKDTSSEEVNLSHIVPCEPVPEEKPKELPEWSEKVAHNILSGASWVSWGLVKGAEITGKAIQKGASKLRERIQPEEKPVEVSPAVTKGLYIAKQATGGAAKVSQFLVDGVCTVANCVGKELAPHVKKHGSKLVPESLKKDKDGKSPLDGAMVVAASSVQGFSTVWQGLECAAKCIVNNVSAETVQTVRYKYGYNAGEATHHAVDSAVNVGVTAYNINNIGIKAMVKKTATQTGHTLLEDYQIVDNSQRENQEGAANVNVRGEKDEQTKEVKEAKKKDK
B1 showed a fold weaker binding than to 2×UB of 4 fold.
